Where no end group is shown, it is not given here. [ ]: non-standard residue; d: D form. The star is where a group is joined. 5FAM = O=C1OC2(c3ccc(O)cc3Oc3cc(O)ccc32)c2ccc(C(=O)*)cc21; pY = N[C@@H](Cc1ccc(OP(=O)(O)O)cc1)C(=O)O
What was measured:
[1] = target: T1, p85α cSH2 (614-720) (human, UniProt P27986 614-720); experiment: fluorescence polarisation; 5-FAM peptide at 20 nM (CD28, p85α, phospho-p85α) or 40 nM (p85β, phospho-p85β), SH2 domain titrated; 298 K; anisotropy fitted to a single site binding isotherm; conditions: both partners purified
T1 construct: PI3-Kinase regulatory subunit p85α, C-terminal SH2 domain, residues 614-720; also called cSH2 domain of p85α; source: E. coli, purified (glutathione-agarose, HRV 3C cleavage, S75 size exclusion)

[2] = target: T2, p85β cSH2 (603-712) (mouse, UniProt O08908 603-712); experiment: as above; conditions: both partners purified
T2 construct: PI3-Kinase regulatory subunit p85β, C-terminal SH2 domain, residues 603-712; also called cSH2 domain of p85β; source: E. coli, purified (glutathione-agarose, HRV 3C cleavage, S75 size exclusion)
T2 sequence (looked up): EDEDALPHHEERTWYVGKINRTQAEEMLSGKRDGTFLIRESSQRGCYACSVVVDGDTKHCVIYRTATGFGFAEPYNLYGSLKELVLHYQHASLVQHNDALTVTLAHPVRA

T1 sequence (P27986 614-720): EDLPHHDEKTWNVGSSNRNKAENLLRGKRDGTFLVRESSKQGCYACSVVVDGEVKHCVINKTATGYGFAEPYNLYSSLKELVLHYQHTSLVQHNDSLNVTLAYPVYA

B1: CD28 peptide, [5-FAM]-SD-[pY]-MNMTP (peptide)
peptide: 5FAM-SD[pY]MNMTP
notes: known SH2 target phosphopeptide from CD28; also called control peptide from CD28; source: synthetic peptide, bought: Biomatik
Does B1 bind [1]?
Result: binds

Does B1 bind [2]?
Result: binds
